For test [1], the target named is T1, Human serum albumin (human, UniProt P02768 25-609). The test is described as follows: cell-based or functional assay.
For test [2], the target named is T2, Recombinant human TNFRI, disulfide-linked homodimer (human, UniProt P19438 30-455). The test is described as follows: ITC; VP-ITC calorimeter; peptide serially diluted and injected; KD by Microcal ORIGIN Ver. 5.0; method by refs 48, 49. Particulars: both partners purified. In general terms: ITC needs no label: the signal is the heat of the interaction.
For test [3], the target named is T1, Human serum albumin. The description is as above. Particulars: both partners purified.
Test [4] deals with T3, Mouse serum albumin (mouse, UniProt P07724 25-608).
T3 construct: serum albumin, mouse; also called MSA; source: bought: Sigma
The description is as above. Particulars: both partners purified.

For test [5], the target named is T2, Recombinant human TNFRI, …. Put plainly: SPR; BIAcore 3000; peptide serially diluted and injected; KD by BIAcore kinetic evaluation Ver. 4.1; method by refs 48, 49. Particulars: both partners purified. (Surface plasmon resonance follows binding to a sensor surface in real time, without labels.)
The target in test [6] is T1, Human serum albumin. Described as above. Particulars: both partners purified.
Test [7] deals with T3, Mouse serum albumin. The description is as above. Particulars: both partners purified.
The target in test [8] is T4, Human TNFRI of ML-la cells (human, UniProt P19438 30-455).
T4 construct: also called p60; source: endogenous, on ML-la cells (human myelomonoblastic leukemia cell line)
T4 sequence (looked up): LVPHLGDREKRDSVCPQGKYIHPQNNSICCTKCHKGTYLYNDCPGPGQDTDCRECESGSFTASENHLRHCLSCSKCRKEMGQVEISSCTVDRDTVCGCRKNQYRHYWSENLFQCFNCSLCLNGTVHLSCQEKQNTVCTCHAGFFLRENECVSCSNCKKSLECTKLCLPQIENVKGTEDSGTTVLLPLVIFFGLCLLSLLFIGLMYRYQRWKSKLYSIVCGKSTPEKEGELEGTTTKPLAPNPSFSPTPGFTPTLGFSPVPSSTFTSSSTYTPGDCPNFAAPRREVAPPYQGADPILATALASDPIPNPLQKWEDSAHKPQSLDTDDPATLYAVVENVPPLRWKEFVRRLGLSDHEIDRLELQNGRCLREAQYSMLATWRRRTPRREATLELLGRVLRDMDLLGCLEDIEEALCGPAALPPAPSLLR
The test is described as follows: radioligand binding; competition: ML-la cells (1 × 10^6 cells/well) preincubated with anti-p60 or anti-p80 antibody (25 °C, 30 min) to block TNFRI or TNFRII, then 125I-labeled TNF α with unlabeled TNF α or RMP16 (10^-11 to 10^-5 M) in RPMI 1640 with 10% fetal calf serum, 25 °C, 1 h; cell-bound radioactivity counted. Particulars: one partner purified.

T3 sequence (P07724 25-608): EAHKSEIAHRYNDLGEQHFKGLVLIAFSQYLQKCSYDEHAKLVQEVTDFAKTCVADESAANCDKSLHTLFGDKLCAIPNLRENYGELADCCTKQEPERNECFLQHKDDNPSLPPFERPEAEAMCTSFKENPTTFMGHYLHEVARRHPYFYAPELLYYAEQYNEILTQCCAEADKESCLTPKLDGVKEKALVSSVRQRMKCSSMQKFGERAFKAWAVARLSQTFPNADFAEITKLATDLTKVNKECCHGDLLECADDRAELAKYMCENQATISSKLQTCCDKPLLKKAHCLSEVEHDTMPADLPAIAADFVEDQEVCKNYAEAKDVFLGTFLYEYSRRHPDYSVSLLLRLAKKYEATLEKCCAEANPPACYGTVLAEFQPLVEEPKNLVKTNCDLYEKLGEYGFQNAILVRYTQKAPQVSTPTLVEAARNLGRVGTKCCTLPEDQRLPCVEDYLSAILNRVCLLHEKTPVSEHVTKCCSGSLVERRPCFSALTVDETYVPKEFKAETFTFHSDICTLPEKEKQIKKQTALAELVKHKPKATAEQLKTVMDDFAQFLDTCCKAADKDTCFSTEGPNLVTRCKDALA

B1: RMP16, recombinant TNF α-derived polypeptide (peptide)
chain: MWQRPSSWIEGRLLTHTISRIAVSYQTKVNLL
notes: P16, TNF α segment of amino acid residues 75-94, human; also called recombinant peptide RMP16
As for B1, in the test with Human serum albumin [1], the “in vitro Factor Xa enzyme digestion half-life of RMP16 (10 μM) in the presence of HSA (2 μM), against 9.72 h without HSA” value is 15.8 h. The Kd turned out to be 20.4 nM in test [2]; 822 nM with Human serum albumin [3]; 894 nM in the test with Mouse serum albumin [4]; 21.3 nM in test [5]; 875 nM in the test with Human serum albumin [6]; 925 nM with Mouse serum albumin [7]. The IC50 in test [8] came to 15.1 nM.

Broadly, the Kd is a measure of binding affinity in units of concentration. What is called IC50 is the concentration that gives 50% inhibition.

For the origin of these results see publication PMC4559766 (Scientific Reports, 2015).
